Like-named read-outs stand apart in the source and are kept apart here. Blank lines part the entries; values can stand above or below the binder they belong to. Bridges are numbered along the chain shown (N, C = ends). Where no end group is shown, it is not given here. [ ]: non-standard residue; d: D form. The star is where a group is joined. Pentanoyl(5-guanidino) = NC(N)=NCCCCC(=O)*; hArg = N=C(N)NCCCC[C@H](N)C(=O)O; dCha = N[C@H](CC1CCCCC1)C(=O)O; Aib = CC(C)(N)C(=O)O
How the values were obtained:
[1] = target: T1, human MCH-1R (human, UniProt Q99705 1-353); assay: SPA competition with [125I]-human MCH (Phe13, Tyr19) on receptor membranes
T1 construct: also called MCH-R1
T1 sequence (Q99705 whole entry, form in doubt): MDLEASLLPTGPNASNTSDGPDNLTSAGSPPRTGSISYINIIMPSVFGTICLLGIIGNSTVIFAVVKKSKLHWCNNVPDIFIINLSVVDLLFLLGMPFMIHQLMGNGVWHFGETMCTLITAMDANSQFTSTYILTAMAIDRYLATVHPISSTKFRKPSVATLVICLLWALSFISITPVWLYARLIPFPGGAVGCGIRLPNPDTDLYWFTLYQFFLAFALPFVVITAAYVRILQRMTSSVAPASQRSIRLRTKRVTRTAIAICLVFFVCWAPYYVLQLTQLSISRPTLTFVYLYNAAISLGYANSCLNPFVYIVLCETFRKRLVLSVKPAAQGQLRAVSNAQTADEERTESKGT
Protocol: (§1) For the SPA-based assay, WGA-PVT beads (NEN Life Sciences Products) were resuspended in Dulbecco's PBS with calcium and magnesium (500 mg beads in 4 ml PBS). […] The suspension was mixed gently for 20 minutes, 12.3 ml of assay buffer and protease inhibitors were added (final concentration given): 2 μg/ml leupeptin, 10 μM phosphoramidon, 40 μg/ml bacitracin, 5 μg/ml aprotinin, 0.1 mM Pefabloc.
(§2) Coated beads were kept on ice until use. […] Binding reactions were allowed to proceed at room temperature for 3 hours. Quantitation was performed by scintillation counting (TopCount device).

[2] = target: T2, human melanin concentrating hormone type 2 receptor (MCH-2R) (human, UniProt Q969V1 1-340); assay: as above
T2 construct: also called MCH-R2
T2 sequence (Q969V1 whole entry, form in doubt): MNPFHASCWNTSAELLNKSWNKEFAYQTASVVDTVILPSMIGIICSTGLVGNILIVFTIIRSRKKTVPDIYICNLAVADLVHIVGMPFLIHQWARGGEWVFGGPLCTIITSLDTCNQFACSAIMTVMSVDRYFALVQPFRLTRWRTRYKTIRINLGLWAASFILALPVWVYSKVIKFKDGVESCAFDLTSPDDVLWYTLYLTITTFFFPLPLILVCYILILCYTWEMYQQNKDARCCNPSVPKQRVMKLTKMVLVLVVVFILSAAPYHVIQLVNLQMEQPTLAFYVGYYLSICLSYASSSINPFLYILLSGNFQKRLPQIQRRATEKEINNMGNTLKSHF
Protocol: as §1, §2

[3] = target: T1, human MCH-1R; assay: cell-based or functional assay
[4] = target: T2, human melanin concentrating hormone …; assay: cell-based or functional assay
[5] = target: T2, human melanin concentrating hormone …; assay: SPA competition with [125I]-human MCH (Phe13, Tyr19) on receptor membranes; remark: listed apart in the source
Protocol: as §1, §2

[6] = target: T2, human melanin concentrating hormone …; assay: cell-based or functional assay; remark: listed apart in the source
[7] = target: T1, human MCH-1R; assay: SPA competition with [125I]-human MCH (Phe13, Tyr19) on receptor membranes; remark: listed apart in the source
Protocol: as §1, §2

[8] = target: T1, human MCH-1R; assay: cell-based or functional assay; remark: listed apart in the source

Binder: [Pentanoyl(5-guanidino)]CML[dA]RVYRPC-NH2 (disulfide 2-11 (inferred); not fully specified, also called (?-NH2)-Arg^6, D-Ala^10) [SEQ. ID. NO. 34]
IC50 [1]: 30 nM | IC50 [2]: 250 nM | Activation % at 10 µM (aequorin functional assay) [3]: 4% | EC50 (aequorin functional assay) [3]: 2000 nM | Activation % at 10 µM (aequorin functional assay) [4]: 110% | EC50 (aequorin functional assay) [4]: 31 nM

Binder: RCMLGXVYRPC (Harg^11 (homoarginine), also called Harg^11) [SEQ. ID. NO. 24]
IC50 [1]: 6.9 nM | IC50 [2]: 0.4 nM | Activation % at 10 µM (aequorin functional assay) [3]: 72% | EC50 (aequorin functional assay) [3]: 1200 nM | Activation % at 10 µM (aequorin functional assay) [4]: 43% | EC50 (aequorin functional assay) [4]: > 10000 nM

B1: SEQ. ID. NO. 41 (peptide)
peptide: AFDMLRCMLGRVYRPCWQV
modifications: disulfide 7-16
notes: positions 1-19 as in hMCH; also called Ala^1
IC50 [5]: 2.1 nM | Activation % at 10 µM (aequorin functional assay) [6]: 96% | EC50 (aequorin functional assay) [6]: 114 nM

Binder: RCMLGXVYRPC (Arg(NO2)^11 (nitroarginine), also called Arg(NO2)^11) [SEQ. ID. NO. 25]
% @ concentration [1]: 80 % @ 1 µM | IC50 [2]: 4.9 nM | EC50 (aequorin functional assay) [3]: > 1000 nM | Activation % at 10 µM (aequorin functional assay) [4]: 39% | EC50 (aequorin functional assay) [4]: > 10000 nM

B2: SEQ. ID. NO. 11 (peptide)
peptide: Ac-RCML[Aib]RVYRPC-NH2
modifications: disulfide 2-11
SMILES: CSCC[C@@H]1NC(=O)[C@@H](NC(=O)[C@H](CCCNC(=N)N)NC(C)=O)CSSC[C@@H](C(N)=O)NC(=O)[C@@H]2CCCN2C(=O)[C@H](CCCNC(=N)N)NC(=O)[C@H](Cc2ccc(O)cc2)NC(=O)[C@H](C(C)C)NC(=O)[C@H](CCCNC(=N)N)NC(=O)C(C)(C)NC(=O)[C@H](CC(C)C)NC1=O
notes: also called Aib^10
IC50 [1]: 90 nM | IC50 [2]: 2.2 nM | Activation % at 10 µM (aequorin functional assay) [3]: 22% | EC50 (aequorin functional assay) [3]: 1900 nM | Activation % at 10 µM (aequorin functional assay) [4]: 104% | EC50 (aequorin functional assay) [4]: 24 nM

B3: SEQ. ID. NO. 27 (peptide)
peptide: Ac-RCMLGRVFRPC-NH2
modifications: disulfide 2-11
SMILES: CSCC[C@@H]1NC(=O)[C@@H](NC(=O)[C@H](CCCNC(=N)N)NC(C)=O)CSSC[C@@H](C(N)=O)NC(=O)[C@@H]2CCCN2C(=O)[C@H](CCCNC(=N)N)NC(=O)[C@H](Cc2ccccc2)NC(=O)[C@H](C(C)C)NC(=O)[C@H](CCCNC(=N)N)NC(=O)CNC(=O)[C@H](CC(C)C)NC1=O
notes: also called Phe^13
IC50 [1]: 1 nM | IC50 [2]: 1.5 nM | Activation % at 10 µM (aequorin functional assay) [3]: 96% | EC50 (aequorin functional assay) [3]: 46 nM | Activation % at 10 µM (aequorin functional assay) [4]: 94% | EC50 (aequorin functional assay) [4]: 12 nM

B4: SEQ. ID. NO. 13 (peptide)
peptide: Ac-RCML[dA]RVYRPC-NH2
modifications: disulfide 2-11
SMILES: CSCC[C@@H]1NC(=O)[C@@H](NC(=O)[C@H](CCCNC(=N)N)NC(C)=O)CSSC[C@@H](C(N)=O)NC(=O)[C@@H]2CCCN2C(=O)[C@H](CCCNC(=N)N)NC(=O)[C@H](Cc2ccc(O)cc2)NC(=O)[C@H](C(C)C)NC(=O)[C@H](CCCNC(=N)N)NC(=O)[C@@H](C)NC(=O)[C@H](CC(C)C)NC1=O
notes: also called D-Ala^10
IC50 [1]: 490 nM | IC50 [2]: 3.2 nM | Activation % at 10 µM (aequorin functional assay) [3]: 40% | EC50 (aequorin functional assay) [3]: 1360 nM | Activation % at 10 µM (aequorin functional assay) [4]: 103% | EC50 (aequorin functional assay) [4]: 16 nM

Binder: Ac-RCML[dN]RVYRPC-NH2 (disulfide 2-11 (inferred), also called D-Asn^10) [SEQ. ID. NO. 18]
IC50 [1]: 97 nM | IC50 [2]: 2.3 nM | Activation % at 10 µM (aequorin functional assay) [3]: 39% | EC50 (aequorin functional assay) [3]: 3000 nM | Activation % at 10 µM (aequorin functional assay) [4]: 106% | EC50 (aequorin functional assay) [4]: 24 nM

Binder: RCMLXRVYRPC (Phg^10 (phenylglycine), also called Phg^10) [SEQ. ID. NO. 12]
IC50 [1]: 2.9 nM | IC50 [2]: 312 nM | Activation % at 10 µM (aequorin functional assay) [3]: 0.1% | EC50 (aequorin functional assay) [3]: > 10000 nM | Activation % at 10 µM (aequorin functional assay) [4]: 80% | EC50 (aequorin functional assay) [4]: 140 nM

Binder: Ac-RCML[dS]RVYRPC-NH2 (disulfide 2-11 (inferred), also called D-Ser^10) [SEQ. ID. NO. 19]
IC50 [1]: 31 nM | IC50 [2]: 1.6 nM | Activation % at 10 µM (aequorin functional assay) [3]: 47% | EC50 (aequorin functional assay) [3]: 2560 nM | Activation % at 10 µM (aequorin functional assay) [4]: 113% | EC50 (aequorin functional assay) [4]: 7 nM

Binder: Ac-RCML[dF]RVYRPC-NH2 (disulfide 2-11 (inferred), also called D-Phe^10) [SEQ. ID. NO. 17]
IC50 [1]: 18 nM | IC50 [2]: 47 nM | Activation % at 10 µM (aequorin functional assay) [3]: 5% | EC50 (aequorin functional assay) [3]: > 10000 nM | Activation % at 10 µM (aequorin functional assay) [4]: 102% | EC50 (aequorin functional assay) [4]: 25 nM

Binder: Ac-RCML[dCha]RVYRPC-NH2 (disulfide 2-11 (inferred), also called D-Cha^10) [SEQ. ID. NO. 16]
IC50 [1]: 11 nM | IC50 [2]: 74 nM | Activation % at 10 µM (aequorin functional assay) [3]: 0.1% | EC50 (aequorin functional assay) [3]: > 10000 nM | Activation % at 10 µM (aequorin functional assay) [4]: 74% | EC50 (aequorin functional assay) [4]: 207 nM

Binder: Ac-RCML[dA][hArg]VYRPC-NH2 (disulfide 2-11 (inferred), also called D-Ala^10, Harg^11) [SEQ. ID. NO. 36]
IC50 [1]: 56 nM | IC50 [2]: 0.9 nM | Activation % at 10 µM (aequorin functional assay) [3]: 0.1% | EC50 (aequorin functional assay) [3]: > 10000 nM | Activation % at 10 µM (aequorin functional assay) [4]: 74% | EC50 (aequorin functional assay) [4]: 19 nM

Further lines, results first:

IC50 [7]: 40.1 nM | IC50 [5]: 40 nM | Activation % at 10 µM (aequorin functional assay) [8]: 56% | EC50 (aequorin functional assay) [8]: 731 nM | Activation % at 10 µM (aequorin functional assay) [6]: 94% | EC50 (aequorin functional assay) [6]: 125 nM
Binder: DFDMLRCALGRVYRPCWQV (disulfide 7-16) [SEQ. ID. NO. 47]

IC50 [7]: 0.9 nM | IC50 [5]: 9.5 nM | Activation % at 10 µM (aequorin functional assay) [8]: 96% | EC50 (aequorin functional assay) [8]: 22 nM | Activation % at 10 µM (aequorin functional assay) [6]: 92% | EC50 (aequorin functional assay) [6]: 95.7 nM
Binder: DFDMLRCMAGRVYRPCWQV (disulfide 7-16, also called Ala^9) [SEQ. ID. NO. 48]

IC50 [7]: 0.3 nM | IC50 [5]: 2 nM | Activation % at 10 µM (aequorin functional assay) [8]: 96% | EC50 (aequorin functional assay) [8]: 20.3 nM | Activation % at 10 µM (aequorin functional assay) [6]: 94% | EC50 (aequorin functional assay) [6]: 17.9 nM
Binder: DFDMARCMLGRVYRPCWQV (disulfide 7-16, also called Ala^5) [SEQ. ID. NO. 45]

IC50 [7]: 0.5 nM | IC50 [5]: 1.2 nM | Activation % at 10 µM (aequorin functional assay) [8]: 97% | EC50 (aequorin functional assay) [8]: 30.2 nM | Activation % at 10 µM (aequorin functional assay) [6]: 95% | EC50 (aequorin functional assay) [6]: 57.2 nM
Binder: DFAMLRCMLGRVYRPCWQV (disulfide 7-16, also called Ala^3) [SEQ. ID. NO. 43]

IC50 [7]: 0.2 nM | IC50 [5]: 1.1 nM | Activation % at 10 µM (aequorin functional assay) [8]: 97% | EC50 (aequorin functional assay) [8]: 9.9 nM | Activation % at 10 µM (aequorin functional assay) [6]: 102% | EC50 (aequorin functional assay) [6]: 28.6 nM
Binder: DADMLRCMLGRVYRPCWQV (disulfide 7-16, also called Ala^2) [SEQ. ID. NO. 42]

IC50 [7]: 169 nM | IC50 [5]: 290 nM | Activation % at 10 µM (aequorin functional assay) [8]: 24% | EC50 (aequorin functional assay) [8]: 5240 nM | EC50 (aequorin functional assay) [6]: > 1000 nM
Binder: DFDMLRCMLGAVYRPCWQV (disulfide 7-16) [SEQ. ID. NO. 49]

IC50 [7]: 0.5 nM | IC50 [5]: 2.4 nM | Activation % at 10 µM (aequorin functional assay) [8]: 97% | EC50 (aequorin functional assay) [8]: 12.7 nM | Activation % at 10 µM (aequorin functional assay) [6]: 100% | EC50 (aequorin functional assay) [6]: 38.9 nM
Binder: DFDALRCMLGRVYRPCWQV (disulfide 7-16, also called Ala^4) [SEQ. ID. NO. 44]

IC50 [7]: 0.9 nM | IC50 [5]: 25 nM | Activation % at 10 µM (aequorin functional assay) [8]: 95% | EC50 (aequorin functional assay) [8]: 38.3 nM | Activation % at 10 µM (aequorin functional assay) [6]: 98% | EC50 (aequorin functional assay) [6]: 83.6 nM
Binder: DFDMLRCMLGRAYRPCWQV (disulfide 7-16, also called Ala^12) [SEQ. ID. NO. 50]

IC50 [7]: 4.5 nM | IC50 [5]: 200 nM | Activation % at 10 µM (aequorin functional assay) [8]: 81% | EC50 (aequorin functional assay) [8]: 161 nM | Activation % at 10 µM (aequorin functional assay) [6]: 76% | EC50 (aequorin functional assay) [6]: 853 nM
Binder: DFDMLACMLGRVYRPCWQV (disulfide 7-16, also called Ala^6) [SEQ. ID. NO. 46]

IC50 [7]: 253 nM | IC50 [5]: 670 nM | Activation % at 10 µM (aequorin functional assay) [8]: 20% | EC50 (aequorin functional assay) [8]: 2300 nM | EC50 (aequorin functional assay) [6]: > 1000 nM
Binder: DFDMLRCMLGRVARPCWQV (disulfide 7-16, also called Ala^13) [SEQ. ID. NO. 51]

Reference: patent publication US20040147432A1 (MERCK, published 2004)
